According to patent US20030175888:

Columns and labels:
LnmP PCP (holo-form) = target: T1, LnmP PCP (holo-form)
T1 chain: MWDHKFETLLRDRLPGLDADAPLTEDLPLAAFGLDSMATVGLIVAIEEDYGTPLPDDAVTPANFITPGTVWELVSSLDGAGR

B1: LnmG (protein)
chain: MVALVFPGQGSQRKGMGADLFARFPDLTRQADTVLGHSVEELCRSSGDGRLDRTEYAQPALFVVSALSYLARDPGLPQPTLLAGHSLGEYGALFAAGCFDFATGVRLVRERGALMGRAQGGGMLAVLGVDGDEVQALLAGTGARQVDVANYNTPTQTVLSGPLDELRMVSAALGQRPGVRCVPVRVSAAFHSRHMRPAAQEFATFLTGFSFADPHRTVISSVTARPYGAGQVAELLSRQIESPVRWSETMAYLRERGTTELEEMGPGKVLTGLWKQGRADGAKARAVAPAPVAVVAGVPAAAAARAPASPAPVAARAATAAPARPSDPAPPAPRTAPSPASPVPPASVSRGQRAEELGSAEFRQDYGIRYAYLAGAMFRGIASAELVIRMGRAGLMGFFGAGGLGLDKVESALVRIKDALGPDGRYGMNLLHSIDDPAYEHAVVDLCLKHGVHDVEAAGFTQLTPAVVQFRFSGAHRDAAGRAVAVRRVLAKVSRPEVAAAFMAPAPAAILRRLTADGRLTPQEAEIAAELPVGQDICVEADSGGHTDGGAALTLLPSMIRHRDAAMARHGYGRRIRIGAAGGIGAPEAVAAAFVLGADFVLTGSVNQCSPEAGTSDAVKDILAGLDVQDTAYAPAGDMFEIGARVQVVRKGTLFAARGNKLYQLYRSHDSWESIDAGTRRSVEETYFKRPFAEVWEETRAYHLGRGRDAEIEKADRLPKHRMALAFRWYFARSVRWGLEGEPTQKVNYQIQCGPAIGAFNHVVRGTGLEDWRHRHVDLIAEHLMTGAADVLARR
LnmI-ACP3 (holo-form)
  loading of the [2-14C]malonyl group onto the holo-ACP (SDS-PAGE and phosphor imaging, 5 min): six of the seven ACPs were efficiently loaded with the malonyl group (FIG. 13C, lanes 2-4 and 6-8)
LnmP PCP (holo-form)
  loading of the [2-14C]malonyl group onto the holo-PCP (SDS-PAGE and phosphor imaging, 5 min): no loading was observed for the LnmP PCP (FIG. 13C, lane 9)
LnmJ-ACP4 (holo-form)
  loading of the [2-14C]malonyl group onto the holo-ACP (SDS-PAGE and phosphor imaging, 5 min): six of the seven ACPs were efficiently loaded with the malonyl group (FIG. 13C, lanes 2-4 and 6-8)
LnmJ-ACP7 (holo-form)
  loading of the [2-14C]malonyl group onto the holo-ACP (SDS-PAGE and phosphor imaging, 5 min): six of the seven ACPs were efficiently loaded with the malonyl group (FIG. 13C, lanes 2-4 and 6-8)
LnmJ-ACP6-2 (holo-form)
  loading of the [2-14C]malonyl group onto the holo-ACP (SDS-PAGE and phosphor imaging, 5 min): six of the seven ACPs were efficiently loaded with the malonyl group (FIG. 13C, lanes 2-4 and 6-8)
  malonyl loading of the two ACPs of PKS module 6 in vitro: LnmG prefers ACP6-2 in vitro
LnmJ-ACP8 (holo-form)
  loading of the [2-14C]malonyl group onto the holo-ACP (SDS-PAGE and phosphor imaging, 5 min): six of the seven ACPs were efficiently loaded with the malonyl group (FIG. 13C, lanes 2-4 and 6-8)
apo-LnmJ-(DH-ACP-KR)
  loading of the [2-14C]malonyl group onto the tridomain protein (9% SDS-PAGE and phosphor imaging): no loading was observed with the apo-LnmJ-(DH-ACP-KR) protein (lane 2)
holo-LnmJ-(DH-ACP-KR)
  loading of the [2-14C]malonyl group onto the tridomain protein (9% SDS-PAGE and phosphor imaging, 2 to 60 min): LnmG efficiently loaded the malonyl group to holo-LnmJ-(DH-ACP-KR) (lanes 3-6)
LnmJ-ACP6-1 (holo-form)
  loading of the [2-14C]malonyl group onto the holo-ACP (SDS-PAGE and phosphor imaging, 5 min): with ACP6-1 being loaded less efficiently (FIG. 13C, lane 5)
LnmJ-ACP5 (holo-form)
  loading of the [2-14C]malonyl group onto the holo-ACP (SDS-PAGE and phosphor imaging, 5 min): six of the seven ACPs were efficiently loaded with the malonyl group (FIG. 13C, lanes 2-4 and 6-8)
